In patent publication US20070022484A1 (published 2007):

Target: C-terminal sRL91 (N-terminal SH2 domain SH2n of p85 subunit of bovine phosphatidylinositol 3-kinase fused … (bovine (SH2n part)))
Experiment: cell-based or functional assay

C-terminal sRL91 (N-terminal SH2 domain SH2n of p85 subunit of bovine phosphatidylinositol 3-kinase fused … (bovine (SH2n part))), sequence (chain, as listed by the source limits assumed): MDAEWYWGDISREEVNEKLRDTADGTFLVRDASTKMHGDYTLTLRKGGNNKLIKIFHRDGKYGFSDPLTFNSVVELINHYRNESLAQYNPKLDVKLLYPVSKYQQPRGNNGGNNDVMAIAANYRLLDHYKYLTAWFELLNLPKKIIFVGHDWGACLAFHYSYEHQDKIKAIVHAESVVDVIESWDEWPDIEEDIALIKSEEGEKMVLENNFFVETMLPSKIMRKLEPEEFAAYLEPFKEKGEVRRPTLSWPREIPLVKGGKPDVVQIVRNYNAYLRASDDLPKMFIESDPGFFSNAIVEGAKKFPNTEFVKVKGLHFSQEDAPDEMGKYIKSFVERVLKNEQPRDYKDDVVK

luminescence activity with 10^-7 M insulin against its absence (split Renilla luciferase complementation, CHO-HIR cells expressing sRL91): 25 fold
B1: N-terminal sRL91 (N-split Renilla luciferase hRLn, split between Ser91 and Tyr92, fused through a linker to Y941 peptide, with Myc epitope) (other, not shown: small tags and cut ends)
chain: MTSKVYDPEQRKRMITGPQWWARCKQMNVLDSFINYYDSEKHAENAVIFLHGNAASSYLWRHVVPHIEPVARCIIPDLIGMGKSGKSGNGSCLSLASNNGNGRNGASLETEEAYMKMDLGPG
modifications: the 941-tyrosine residue of the Y941 peptide is phosphorylated by the insulin receptor upon insulin stimulation
